Where a chain is given by its changes, count along the chain named. In names and notes the source's numbering stands.
How the values were obtained:
[1] = molecular target: T1, StCsm6’ (Csm6’) (Streptococcus thermophilus, UniProt A0A0A7HFE6); assay: fluorogenic RNase activation assay (RNaseAlert FAM); format: biochemical; conditions: activator, CARF domain; 1 µM dimer, 125 nM reporter RNA, MES pH 6.0, 30 mM NaCl, 20% glycerol, 45 °C, 30 min
T1 construct: full length, 386 residues, CARF 1-173, 6H 174-239, HEPN 240-386; E. coli C43(DE3), pEV5HisTEV, 8-His tag cut by TEV; symmetrical homodimer
T1 sequence (A0A0A7HFE6 1-386): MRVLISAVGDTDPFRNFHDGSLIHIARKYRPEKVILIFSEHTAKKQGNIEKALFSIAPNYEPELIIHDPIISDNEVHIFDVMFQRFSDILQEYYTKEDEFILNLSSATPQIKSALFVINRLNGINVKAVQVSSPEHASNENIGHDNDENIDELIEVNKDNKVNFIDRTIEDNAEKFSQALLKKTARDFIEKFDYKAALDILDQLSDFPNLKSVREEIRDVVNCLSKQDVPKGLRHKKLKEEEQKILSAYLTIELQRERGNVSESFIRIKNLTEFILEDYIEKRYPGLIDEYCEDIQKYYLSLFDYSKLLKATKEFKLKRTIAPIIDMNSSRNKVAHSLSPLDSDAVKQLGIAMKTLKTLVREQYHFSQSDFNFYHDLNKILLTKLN

[2] = molecular target: T1, StCsm6’ (Csm6’); assay: X-ray crystallography, […] Å; format: binding; conditions: CARF domain site at dimer; occupancy 0.50, mixed with cleaved product
[3] = molecular target: the molecule itself; assay: crystal structure; StCsm6’ co-crystallised with cA6 (1:1.5 molar ratio), 1.96 Å; homodimer
[4] = molecular target: the molecule itself; assay: pulse dipolar EPR spectroscopy (PELDOR/DEER); spin-labelled protein at 50 μM in deuterated buffer with 50% glycerol, frozen solution, 50 K, Q-band, with and without 25 μM cA6; distances between spin labels in the two monomers

Nc1ncnc2c1ncn2[C@@H]1O[C@@H]2COP(=O)(O)O[C@H]3[C@@H](O)[C@H](n4cnc5c(N)ncnc54)O[C@@H]3COP(=O)(O)O[C@H]3[C@@H](O)[C@H](n4cnc5c(N)ncnc54)O[C@@H]3COP(=O)(O)O[C@H]3[C@@H](O)[C@H](n4cnc5c(N)ncnc54)O[C@@H]3COP(=O)(O)O[C@H]3[C@@H](O)[C@H](n4cnc5c(N)ncnc54)O[C@@H]3COP(=O)(O)O[C@H]3[C@@H](O)[C@H](n4cnc5c(N)ncnc54)O[C@@H]3COP(=O)(O)O[C@H]2[C@H]1O [cA6, cyclic hexa-adenylate]
concentration for full activation [1]: ~ 100 nM
X-ray crystallography, 1.96 Å [2]: electron density consistent with a molecule of cA6 bound to the StCsm6’ dimer

B1: Streptococcus thermophilus Csm6’ (enzyme, UniProt A0A0A7HFE6 1-386, looked up)
chain: T1 sequence (A0A0A7HFE6 1-386)
notes: Csm6’ ribonuclease of the type III-A CRISPR system of Streptococcus thermophilus; 386 residues in the monomer (CARF 1-173, 6H 174-239, HEPN 240-386); Cloned in pEV5HisTEV between NcoI and BamHI; Crystallised with cA6 (8PE3) and without (8PCW); also called StCsm6’; WT StCsm6’; source: E. coli C43 (DE3), purified (HisTrap, TEV cleavage, second IMAC, SEC)
stoichiometry N [3]: 2

B2: StCsm6’ variant C223A:C292A:N209C:D88C, MTSL spin-labelled (enzyme, Streptococcus thermophilus, UniProt A0A0A7HFE6 1-386, looked up)
chain: T1 sequence (A0A0A7HFE6 1-386) with D88C, N209C, C223A, C292A
modifications: MTSL spin-labelled cysteine side chain R1 at 88 and 209
notes: Csm6’ ribonuclease of Streptococcus thermophilus, 386 residues in the monomer, with four substitutions; parent as m1; Variants were expressed and purified as described for the WT protein; also called D88C/N209C; D88R1/N209R1; source: E. coli C43 (DE3), purified as the WT protein, then spin-labelled with MTSL
binding result [4]: binds

B3: StCsm6’ variant C223A:C292A:N209C:R85C, MTSL spin-labelled (enzyme, Streptococcus thermophilus, UniProt A0A0A7HFE6 1-386, looked up)
chain: T1 sequence (A0A0A7HFE6 1-386) with R85C, N209C, C223A, C292A
modifications: MTSL spin-labelled cysteine side chain R1 at 85 and 209
notes: Csm6’ ribonuclease of Streptococcus thermophilus, 386 residues in the monomer, with four substitutions; parent as m1; Variants were expressed and purified as described for the WT protein; also called R85C/N209C; R85R1/N209R1; source: E. coli C43 (DE3), purified as the WT protein, then spin-labelled with MTSL
binding result [4]: binds
